In article PMC10393062:

How the values were obtained:
Lck-mTurquoise2-iLID = experiment: light-induced recruitment of a cytosolic prey to a plasma membrane bait (live-cell spinning disk microscopy); HeLa cells; 1 pulse of 440 nm laser light at 20% for 1 s; change in cytosolic intensity of the prey in percent, measured 20 s after stimulation
Venus-iLID-CaaX [1] = experiment: as above
Venus-iLID-CaaX [2] = experiment: light-induced recruitment of a cytosolic prey to a plasma membrane bait (live-cell confocal microscopy); HeLa cells, 37°C; photo-activation with 488 nm laser light (1% intensity) every 2.5 s for 2 min; normalized membrane to cytosol intensity ratio of the prey; t½ ON and OFF from a mono-exponential fit to the mean

median change in cytosolic intensity (recruitment efficiency) (Lck-mTurquoise2-iLID): 36.7% | mean change in cytosolic intensity (recruitment efficiency) (Venus-iLID-CaaX [1]): 25.5% | t½ OFF of recruitment (after 488 nm light) (Venus-iLID-CaaX [2]): 20.3 s | t½ ON of recruitment (488 nm light) (Venus-iLID-CaaX [2]): 5.14 s
Substance: SspB-mScarlet-I (from UniProt P0AFZ3 1-165) (natural protein)
